In patent US20230074436A1 (DENALI THERAPEUTICS, published 2023):

Target: T1, human alpha-synuclein monomer (human, UniProt P37840 1-140)
Assay: SPR (Biacore 8K), IgG captured on anti-human Fc, aSyn monomer injected
Protocol: (§1) Serial 3-fold dilutions of aSyn were injected at a flow rate of 30 μL/min. Each sample was analyzed using a 3-minute association and a 10-minute dissociation. After each injection, the chip was regenerated using 3 M MgCl₂. Binding response was corrected by subtracting the RU from a flow cell capturing an irrelevant IgG at similar density. A 1:1 Languir model of simultaneous fitting of kₒₙ and koff was used for kinetics analysis.

Row | Binder | Kd [nM]
1 | HC6_LC_k3_2_v1 (antibody, V domains shown) VH: EVQLVESGGGLVQPGGSLRLSCAASGFTFSNAAMYWVRQAPGKGLELVSRIRTKPNNYATYHADSVKGRFTISRDDSKNTLYLQMNSLRAEDTAVYYCTADMATGDYWGQGTLVTVSS VL: EIVMTQSPATLSLSPGERATLSCKASQNINKNLDWYQQKPGQAPRPLIYSTNNLKTGIPARFSGSGSGTDFTLTISSLQPEDFAVYYCYQYKSAWTFGQGTKVEIK | 0.22
2 | 20H4_HC5_LC_k3_1 (antibody, V domains shown) VH: EVQLVESGGGLVQPGGSLRLSCAASGFTFSNAAMYWVRQAPGKGLELLARIRTKPNNYATYHADSVKGRFTISRDDSKNTVYLQMNSLRAEDTAVYYCTADMATGDYWGQGTLVTVSS VL: EIVMTQSPATLSLSPGERATLSCKASQNINNNLDWYQQKPGQAPRPLIYSTNNLKTGIPARFSGSGSGTDFTLTISSLQPEDFAVYYCYQYKSAWTFGQGTKVEIK | 0.13
3 | 20H4_HC5_LC_k3_2_v2 (antibody, V domains shown) VH: EVQLVESGGGLVQPGGSLRLSCAASGFTFSNAAMYWVRQAPGKGLELLARIRTKPNNYATYHADSVKGRFTISRDDSKNTVYLQMNSLRAEDTAVYYCTADMATGDYWGQGTLVTVSS VL: EIVMTQSPATLSLSPGERATLSCKASQNINKNLDWYQQKPGQAPRPLIYSTNNLQTGIPARFSGSGSGTDFTLTISSLQPEDFAVYYCYQYKSAWTFGQGTKVEIK | 1.3
4 | HC5_LC_k3_2_v1 (antibody, V domains shown) VH: EVQLVESGGGLVQPGGSLRLSCAASGFTFSNAAMYWVRQAPGKGLELLARIRTKPNNYATYHADSVKGRFTISRDDSKNTVYLQMNSLRAEDTAVYYCTADMATGDYWGQGTLVTVSS VL: EIVMTQSPATLSLSPGERATLSCKASQNINKNLDWYQQKPGQAPRPLIYSTNNLKTGIPARFSGSGSGTDFTLTISSLQPEDFAVYYCYQYKSAWTFGQGTKVEIK | 0.17
5 | HC5_LC_k3_3 (antibody, V domains shown) VH: EVQLVESGGGLVQPGGSLRLSCAASGFTFSNAAMYWVRQAPGKGLELLARIRTKPNNYATYHADSVKGRFTISRDDSKNTVYLQMNSLRAEDTAVYYCTADMATGDYWGQGTLVTVSS VL: EIVMTQSPATLSLSPGERATLSCKASQNINQNLDWYQQKPGQAPRPLIYSTNNLKTGIPARFSGSGSGTDFTLTISSLQPEDFAVYYCYQYKSAWTFGQGTKVEIK | 0.17
6 | HC5_LC_k3_4 (antibody, V domains shown) VH: EVQLVESGGGLVQPGGSLRLSCAASGFTFSNAAMYWVRQAPGKGLELLARIRTKPNNYATYHADSVKGRFTISRDDSKNTVYLQMNSLRAEDTAVYYCTADMATGDYWGQGTLVTVSS VL: EIVMTQSPATLSLSPGERATLSCKASQNINENLDWYQQKPGQAPRPLIYSTNNLKTGIPARFSGSGSGTDFTLTISSLQPEDFAVYYCYQYKSAWTFGQGTKVEIK | 0.15
7 | HC5_LC_k3_5 (antibody, V domains shown) VH: EVQLVESGGGLVQPGGSLRLSCAASGFTFSNAAMYWVRQAPGKGLELLARIRTKPNNYATYHADSVKGRFTISRDDSKNTVYLQMNSLRAEDTAVYYCTADMATGDYWGQGTLVTVSS VL: EIVMTQSPATLSLSPGERATLSCKASQNINKQLDWYQQKPGQAPRPLIYSTNNLKTGIPARFSGSGSGTDFTLTISSLQPEDFAVYYCYQYKSAWTFGQGTKVEIK | 0.13
8 | HC5_LC_k3_6 (antibody, V domains shown) VH: EVQLVESGGGLVQPGGSLRLSCAASGFTFSNAAMYWVRQAPGKGLELLARIRTKPNNYATYHADSVKGRFTISRDDSKNTVYLQMNSLRAEDTAVYYCTADMATGDYWGQGTLVTVSS VL: EIVMTQSPATLSLSPGERATLSCKASANINKQLDWYQQKPGQAPRPLIYSTNNLKTGIPARFSGSGSGTDFTLTISSLQPEDFAVYYCYQYKSAWTFGQGTKVEIK | 0.19
9 | HC6_LC_k3_1 (antibody, V domains shown) VH: EVQLVESGGGLVQPGGSLRLSCAASGFTFSNAAMYWVRQAPGKGLELVSRIRTKPNNYATYHADSVKGRFTISRDDSKNTLYLQMNSLRAEDTAVYYCTADMATGDYWGQGTLVTVSS VL: EIVMTQSPATLSLSPGERATLSCKASQNINNNLDWYQQKPGQAPRPLIYSTNNLKTGIPARFSGSGSGTDFTLTISSLQPEDFAVYYCYQYKSAWTFGQGTKVEIK | 0.16
10 | HC6_LC_k3_3 (antibody, V domains shown) VH: EVQLVESGGGLVQPGGSLRLSCAASGFTFSNAAMYWVRQAPGKGLELVSRIRTKPNNYATYHADSVKGRFTISRDDSKNTLYLQMNSLRAEDTAVYYCTADMATGDYWGQGTLVTVSS VL: EIVMTQSPATLSLSPGERATLSCKASQNINQNLDWYQQKPGQAPRPLIYSTNNLKTGIPARFSGSGSGTDFTLTISSLQPEDFAVYYCYQYKSAWTFGQGTKVEIK | 0.16
11 | HC6_LC_k3_4 (antibody, V domains shown) VH: EVQLVESGGGLVQPGGSLRLSCAASGFTFSNAAMYWVRQAPGKGLELVSRIRTKPNNYATYHADSVKGRFTISRDDSKNTLYLQMNSLRAEDTAVYYCTADMATGDYWGQGTLVTVSS VL: EIVMTQSPATLSLSPGERATLSCKASQNINENLDWYQQKPGQAPRPLIYSTNNLKTGIPARFSGSGSGTDFTLTISSLQPEDFAVYYCYQYKSAWTFGQGTKVEIK | 0.18

Target: T1, human alpha-synuclein monomer
Assay: as above
Remark: another data set of the same source
Protocol: as §1

Row | Binder | Kd [nM]
12 | HC2_L3_1 (antibody, V domains shown) VH: EVQLVESGGGLVQPGGSLRLSCAASGFTFSNAAMYWVRQAPGKGLELVSRIRTKPNNYATYHADSVKGRFTISRDNSKNTLYLQMNSLRAEDTAVYYCTADMATGDYWGQGTLVTVSS VL: DIQMTQSPSSLSASVGDRVTITCKASQNINKNLDWYQQKPGKAPKPLIYSTNNLQTGVPSRFSGSGSGTDFTLTISSLQPEDFATYYCYQDKNGWTFGQGTKVEIK | 4.2
13 | HC2_L3_2 (antibody, V domains shown) VH: EVQLVESGGGLVQPGGSLRLSCAASGFTFSNAAMYWVRQAPGKGLELVSRIRTKPNNYATYHADSVKGRFTISRDNSKNTLYLQMNSLRAEDTAVYYCTADMATGDYWGQGTLVTVSS VL: DIQMTQSPSSLSASVGDRVTITCKASQNINKNLDWYQQKPGKAPKPLIYSTNNLQTGVPSRFSGSGSGTDFTLTISSLQPEDFATYYCYQDKRGWTFGQGTKVEIK | 4.52
14 | HC2_L3_3 (antibody, V domains shown) VH: EVQLVESGGGLVQPGGSLRLSCAASGFTFSNAAMYWVRQAPGKGLELVSRIRTKPNNYATYHADSVKGRFTISRDNSKNTLYLQMNSLRAEDTAVYYCTADMATGDYWGQGTLVTVSS VL: DIQMTQSPSSLSASVGDRVTITCKASQNINKNLDWYQQKPGKAPKPLIYSTNNLQTGVPSRFSGSGSGTDFTLTISSLQPEDFATYYCYQDKKGWTFGQGTKVEIK | 5.28
15 | HC2_L3_4 (antibody, V domains shown) VH: EVQLVESGGGLVQPGGSLRLSCAASGFTFSNAAMYWVRQAPGKGLELVSRIRTKPNNYATYHADSVKGRFTISRDNSKNTLYLQMNSLRAEDTAVYYCTADMATGDYWGQGTLVTVSS VL: DIQMTQSPSSLSASVGDRVTITCKASQNINKNLDWYQQKPGKAPKPLIYSTNNLQTGVPSRFSGSGSGTDFTLTISSLQPEDFATYYCYQDKSGWTFGQGTKVEIK | 2.84
16 | HC2_L3_5 (antibody, V domains shown) VH: EVQLVESGGGLVQPGGSLRLSCAASGFTFSNAAMYWVRQAPGKGLELVSRIRTKPNNYATYHADSVKGRFTISRDNSKNTLYLQMNSLRAEDTAVYYCTADMATGDYWGQGTLVTVSS VL: DIQMTQSPSSLSASVGDRVTITCKASQNINKNLDWYQQKPGKAPKPLIYSTNNLQTGVPSRFSGSGSGTDFTLTISSLQPEDFATYYCYQYKNAWTFGQGTKVEIK | 3.24
17 | HC2_L3_6 (antibody, V domains shown) VH: EVQLVESGGGLVQPGGSLRLSCAASGFTFSNAAMYWVRQAPGKGLELVSRIRTKPNNYATYHADSVKGRFTISRDNSKNTLYLQMNSLRAEDTAVYYCTADMATGDYWGQGTLVTVSS VL: DIQMTQSPSSLSASVGDRVTITCKASQNINKNLDWYQQKPGKAPKPLIYSTNNLQTGVPSRFSGSGSGTDFTLTISSLQPEDFATYYCYQYKKAWTFGQGTKVEIK | 3.28
18 | HC2_L3_7 (antibody, V domains shown) VH: EVQLVESGGGLVQPGGSLRLSCAASGFTFSNAAMYWVRQAPGKGLELVSRIRTKPNNYATYHADSVKGRFTISRDNSKNTLYLQMNSLRAEDTAVYYCTADMATGDYWGQGTLVTVSS VL: DIQMTQSPSSLSASVGDRVTITCKASQNINKNLDWYQQKPGKAPKPLIYSTNNLQTGVPSRFSGSGSGTDFTLTISSLQPEDFATYYCYQYKNGWTFGQGTKVEIK | 4.59
19 | HC2_L3_8 (antibody, V domains shown) VH: EVQLVESGGGLVQPGGSLRLSCAASGFTFSNAAMYWVRQAPGKGLELVSRIRTKPNNYATYHADSVKGRFTISRDNSKNTLYLQMNSLRAEDTAVYYCTADMATGDYWGQGTLVTVSS VL: DIQMTQSPSSLSASVGDRVTITCKASQNINKNLDWYQQKPGKAPKPLIYSTNNLQTGVPSRFSGSGSGTDFTLTISSLQPEDFATYYCYQFKKAWTFGQGTKVEIK | 3.01
20 | HC2_L3_9 (antibody, V domains shown) VH: EVQLVESGGGLVQPGGSLRLSCAASGFTFSNAAMYWVRQAPGKGLELVSRIRTKPNNYATYHADSVKGRFTISRDNSKNTLYLQMNSLRAEDTAVYYCTADMATGDYWGQGTLVTVSS VL: DIQMTQSPSSLSASVGDRVTITCKASQNINKNLDWYQQKPGKAPKPLIYSTNNLQTGVPSRFSGSGSGTDFTLTISSLQPEDFATYYCYQYKYAWTFGQGTKVEIK | 2.98
21 | HC2_L3_10 (antibody, V domains shown) VH: EVQLVESGGGLVQPGGSLRLSCAASGFTFSNAAMYWVRQAPGKGLELVSRIRTKPNNYATYHADSVKGRFTISRDNSKNTLYLQMNSLRAEDTAVYYCTADMATGDYWGQGTLVTVSS VL: DIQMTQSPSSLSASVGDRVTITCKASQNINKNLDWYQQKPGKAPKPLIYSTNNLQTGVPSRFSGSGSGTDFTLTISSLQPEDFATYYCYQYKLAWTFGQGTKVEIK | 2.93
22 | HC2_L3_11 (antibody, V domains shown) VH: EVQLVESGGGLVQPGGSLRLSCAASGFTFSNAAMYWVRQAPGKGLELVSRIRTKPNNYATYHADSVKGRFTISRDNSKNTLYLQMNSLRAEDTAVYYCTADMATGDYWGQGTLVTVSS VL: DIQMTQSPSSLSASVGDRVTITCKASQNINKNLDWYQQKPGKAPKPLIYSTNNLQTGVPSRFSGSGSGTDFTLTISSLQPEDFATYYCYQYKFAWTFGQGTKVEIK | 3.4
